# Legend:
# HLA-A*1101 = HLA-A*1101 (Homo sapiens, UniProt P04439, A114D/D185E/E176A/F33Y/L180Q/S129P/T187R); experiment: HLA class I peptide binding assay; conditions: Table XVII
# HLA-A*0301 = target: T1, HLA-A*0301 (Homo sapiens, UniProt P04439); experiment: HLA class I peptide binding assay; conditions: for A*0301 (binding information): Table XVI, Malaria A3 motif peptides
# T1 construct: endogenous in cells; host or cells: GM3107
# DRB1*0701 (DR7) = target: T2, DRB1*0701 (DR7) (Homo sapiens, UniProt P01903+P01911, A100R/A102G/A103Q/D57E/D86V/E43K/F76Y/K127E/L162R/M171V/P40G/Q125H/Q99D/R33Q/R42Y/R54Q/S133A/S66F/T210M/V115G/Y107V/Y59L/Y89S); experiment: biochemical; format: binding
# T2 construct: endogenous in cells; host or cells: Pitout
# DRB1*1201 (DR5w12) = target: T3, DRB1*1201 (DR5w12) (Homo sapiens, UniProt P01903+P01911, A100R/A169T/D57E/D86V/F55L/H45Y/K41T/L162R/M171V/P40S/Q125H/Q178H/Q39Y/Q99D/R42G/S66L/T262R/V114A/V67L/W38E/Y59H/Y61H/Y89S); experiment: HLA class II peptide binding assay; conditions: for DR5w12 binding data: Table XIXb; for DR5w12 binding information: DR3a motif peptides, unit not given, exemplary 15-mer containing the core sequence
# T3 construct: endogenous in cells; host or cells: Herluf
# DRB1*1101 (DR5w11) = target: T4, DRB1*1101 (DR5w11) (Homo sapiens, UniProt P01903+P01911, A100R/A169T/A87E/I96F/K41T/L162R/M171V/P40S/Q125H/Q178H/Q39Y/Q99D/R42S/S66Y/T262R/V115G/W38E); experiment: biochemical; format: binding
# T4 construct: endogenous in cells; host or cells: Sweig
# T4 sequence (P01903 26-254, other chains not shown): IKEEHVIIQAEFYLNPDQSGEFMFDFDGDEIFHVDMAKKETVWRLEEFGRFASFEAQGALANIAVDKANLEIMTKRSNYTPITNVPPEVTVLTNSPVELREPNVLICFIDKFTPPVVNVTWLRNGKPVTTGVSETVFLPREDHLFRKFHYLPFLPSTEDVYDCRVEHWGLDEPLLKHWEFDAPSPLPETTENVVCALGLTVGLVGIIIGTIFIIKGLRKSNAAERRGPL
# DRB4*0101 (DRw53) = target: T5, DRB4*0101 (DRw53) (Homo sapiens, UniProt P01903+P13762, G164S); experiment: HLA class II peptide binding assay (pH 5.0); conditions: for DRw53 binding data: Table XIXb; for DRw53 binding information: DR3a motif peptides, unit not given, exemplary 15-mer containing the core sequence
# T5 construct: expressed in transfected cells; host or cells: L257.6 (fibroblasts)
# DRB5*0101 (DR2w2β2) = target: T6, DRB5*0101 (DR2w2β2) (Homo sapiens, UniProt P01903+Q30154); format: binding
# T6 construct: expressed in transfected cells; host or cells: L416.3 (fibroblasts) or GM3107
# DRB1*0405 (DR4w15) = target: T7, DRB1*0405 (DR4w15) (Homo sapiens, UniProt P01903+P01911, A100R/A169T/D86S/F76Y/I96L/K127E/L162R/M171V/N62H/P40V/Q125Y/R42H/S133A/S149N/S66Y/V115G/V209L/W38E); experiment: HLA class II peptide binding assay; conditions: for DR4w15 binding data: Table XIXb; for DR4w15 binding information: DR3a motif peptides, unit not given, exemplary 15-mer containing the core sequence
# T7 construct: endogenous in cells; host or cells: KT3
# DRB1*0802 (DR8w2) = target: T8, DRB1*0802 (DR8w2) (Homo sapiens, UniProt P01903+P01911, A100R/A103L/A169T/F76Y/H45Y/I96F/K41T/L162R/M171V/P40S/Q125H/Q178H/Q39Y/Q99D/R218S/R42G/S66Y/V115G/W38E); experiment: biochemical; format: binding
# T8 construct: endogenous in cells; host or cells: OLL
# DRB1*0401 (DR4w4) = target: T9, DRB1*0401 (DR4w4) (Homo sapiens, UniProt P01903+P01911, A100K/A169T/F76Y/I96L/K127E/L162R/M171V/N62H/P40V/Q125Y/R42H/S133A/S149N/S66Y/V115G/V209L/W38E); experiment: HLA class II peptide binding assay; conditions: for DR4w4 binding data: Table XIXb; for DR4w4 binding information: DR3a motif peptides, unit not given, exemplary 15-mer containing the core sequence
# T9 construct: endogenous in cells; host or cells: Preiss
# T9 sequence (P01903 26-254 partner, other chains not shown): as the sequence (P01903 26-254, other chains not shown) above
# DRB1*0101 (DR1) = target: T10, DRB1*0101 (DR1) (Homo sapiens, UniProt P01903+P01911, A100R/D57E/F55L/F60I/F76Y/I96L/L162R/M171V/P40L/Q125E/R42F/V115G/Y59C); experiment: HLA class II peptide binding assay; conditions: for DR1 binding data: Table XIXb, Malaria Super Motif Peptides With Binding Data; for DR1 binding information: DR3a motif peptides, unit not given, exemplary 15-mer containing the core sequence
# T10 construct: endogenous in cells; host or cells: LG2
# T10 sequence (P01903 26-254 partner, other chains not shown): as the sequence (P01903 26-254, other chains not shown) above
# DRB1*0301 (DR3) = target: T11, DRB1*0301 (DR3) (Homo sapiens, UniProt P01903+P01911, A100K/A102G/A103R/A169T/F55Y/I96L/K41T/L162R/M171V/P40S/Q125H/Q178H/Q39Y/R42S/S66N/T106N/T262R/W38E/Y61H); experiment: HLA class II peptide binding assay (pH 4.5); conditions: DR3a motif peptides; unit not given; exemplary 15-mer containing the core sequence
# T11 construct: endogenous in cells; host or cells: MAT
# [1] = malaria A11 motif peptides, binding value unit not given
# [2] = Malaria A11 motif peptides, binding value for HLA-A*1101, unit not given
# [3] = Malaria A11 motif peptides, HLA-A*1101 binding value, unit not given
# [4] = binding value to HLA-A*0301, unit not given
Substance,DR7 binding data (DRB1*0701 (DR7)),DR5w12 binding data (DRB1*1201 (DR5w12)),DR5w11 binding data (DRB1*1101 (DR5w11)),DRw53 binding data (DRB4*0101 (DRw53)),DR2w2β2 binding data (DRB5*0101 (DR2w2β2)),DR4w15 binding data (DRB1*0405 (DR4w15)),DR8w2 binding data (DRB1*0802 (DR8w2)),DR4w4 binding data (DRB1*0401 (DR4w4)),DR1 binding data (DRB1*0101 (DR1)),further results
SVTCGKOTFt (SVTCGKGTR),–,–,–,–,–,–,–,–,–,A*1101 binding information (HLA-A*1101; [1]): 0.0009
KGKKYEKIK,–,–,–,–,–,–,–,–,–,"A*0301 (binding information) (HLA-A*0301; HLA-A*0301 binding value, unit not given): 0.0002; A*1101 binding information (HLA-A*1101; [2]): 0.0002"
VNDFQISKY,-0.0003,0.0001,-0.0002,-0.0005,-0.0005,-0.0014,-0.0003,-0.0007,0.0001,–
LAMKLIQQL,0.0770,0.1300,0.0002,0.0350,-0.0006,0.0013,0.0400,0.0023,0.0015,–
VLYNTEXGRH,–,–,–,–,–,–,–,–,–,A*1101 binding information (HLA-A*1101; [3]): 0.0002
IVDELSEDI,–,–,–,–,–,–,–,–,–,DR7 binding information (DRB1*0701 (DR7)): -0.0003; DR5w12 binding information (DRB1*1201 (DR5w12)): 0.0001; DR5w11 binding information (DRB1*1101 (DR5w11)): -0.0002; DRw53 binding information (DRB4*0101 (DRw53)): 0.0290; DR3 binding information (DRB1*0301 (DR3)): -0.0041; DR2w2β2 binding information (DRB5*0101 (DR2w2β2)): -0.0005; DR4w15 binding information (DRB1*0405 (DR4w15)): 0.0017; DR8w2 binding information (DRB1*0802 (DR8w2)): -0.0003; DR4w4 binding information (DRB1*0401 (DR4w4)): 0.0027; DR1 binding information (DRB1*0101 (DR1)): 0.0001
DGNNEDNEX,–,–,–,–,–,–,–,–,–,A*1101 binding information (HLA-A*1101; [3]): 0.0002
LTDGIPDSI,-0.0003,0.0001,-0.0004,0.0114,-0.0006,-0.0014,-0.0003,0.1200,0.0001,–
WDEWSPCSV,-0.0003,0.0001,-0.0002,-0.0006,-0.0006,-0.0014,-0.0003,-0.0007,0.0001,–
GLVLYNIEK,–,–,–,–,–,–,–,–,–,A*1101 binding information (HLA-A*1101; [3]): 0.0055
LSTNLPYGR,0.0005,–,–,–,–,–,–,0.0120,0.0012,"A*0301 (binding information) (HLA-A*0301; [4]): 0.0004; A*301 (binding data) (HLA-A*0301; Malaria A03 supermotif peptides, Table IX): 0.0004; A*1101 binding information (HLA-A*1101; [1]): 0.0100"
KSLYDEHIIK,–,–,–,–,–,–,–,–,–,A*1101 binding information (HLA-A*1101; [2]): 0.0340
LALLACAGL,0.0009,0.0051,-0.0002,-0.0005,0.0013,-0.0014,0.0003,-0.0007,0.0018,–
INRENANQL,–,–,–,–,–,–,–,–,–,DR7 binding information (DRB1*0701 (DR7)): -0.0003; DR5w12 binding information (DRB1*1201 (DR5w12)): 0.0001; DR5w11 binding information (DRB1*1101 (DR5w11)): -0.0004; DRw53 binding information (DRB4*0101 (DRw53)): 0.0096; DR3 binding information (DRB1*0301 (DR3)): 0.0092; DR2w2β2 binding information (DRB5*0101 (DR2w2β2)): 0.0015; DR4w15 binding information (DRB1*0405 (DR4w15)): 0.0010; DR8w2 binding information (DRB1*0802 (DR8w2)): -0.0003; DR4w4 binding information (DRB1*0401 (DR4w4)): 0.0011; DR1 binding information (DRB1*0101 (DR1)): 0.0770
QCEEERCPPK,–,–,–,–,–,–,–,–,–,A*0301 (binding information) (HLA-A*0301; [4]): 0.0004; A*1101 binding information (HLA-A*1101; [1]): 0.0002
FDEILGEEDK,–,–,–,–,–,–,–,–,–,A*1101 binding information (HLA-A*1101; [1]): 0.0002
YGRLEIPAI,-0.0003,0.0002,-0.0002,-0.0005,-0.0005,0.0170,0.0021,-0.0007,0.0004,–
EDMCYFMK,–,–,–,–,–,–,–,–,–,A*1101 binding information (HLA-A*1101; [2]): 0.0003
YLLMDCSGS,0.0046,0.0001,-0.0004,-0.0010,0.0096,-0.0014,0.0007,0.0150,0.0015,–
